According to paper PMC7397094:

Assays:
[1] = biological target: human recombinant RetGC1 (retinal membrane guanylyl cyclase 1) (human) (UniProt Q02846)
[2] = biological target: human recombinant RetGC1 (retinal membrane guanylyl cyclase 1) (human) (UniProt Q02846); remark: listed apart in the source

Chain of UniProt Q02846 (Q02846 52-1103): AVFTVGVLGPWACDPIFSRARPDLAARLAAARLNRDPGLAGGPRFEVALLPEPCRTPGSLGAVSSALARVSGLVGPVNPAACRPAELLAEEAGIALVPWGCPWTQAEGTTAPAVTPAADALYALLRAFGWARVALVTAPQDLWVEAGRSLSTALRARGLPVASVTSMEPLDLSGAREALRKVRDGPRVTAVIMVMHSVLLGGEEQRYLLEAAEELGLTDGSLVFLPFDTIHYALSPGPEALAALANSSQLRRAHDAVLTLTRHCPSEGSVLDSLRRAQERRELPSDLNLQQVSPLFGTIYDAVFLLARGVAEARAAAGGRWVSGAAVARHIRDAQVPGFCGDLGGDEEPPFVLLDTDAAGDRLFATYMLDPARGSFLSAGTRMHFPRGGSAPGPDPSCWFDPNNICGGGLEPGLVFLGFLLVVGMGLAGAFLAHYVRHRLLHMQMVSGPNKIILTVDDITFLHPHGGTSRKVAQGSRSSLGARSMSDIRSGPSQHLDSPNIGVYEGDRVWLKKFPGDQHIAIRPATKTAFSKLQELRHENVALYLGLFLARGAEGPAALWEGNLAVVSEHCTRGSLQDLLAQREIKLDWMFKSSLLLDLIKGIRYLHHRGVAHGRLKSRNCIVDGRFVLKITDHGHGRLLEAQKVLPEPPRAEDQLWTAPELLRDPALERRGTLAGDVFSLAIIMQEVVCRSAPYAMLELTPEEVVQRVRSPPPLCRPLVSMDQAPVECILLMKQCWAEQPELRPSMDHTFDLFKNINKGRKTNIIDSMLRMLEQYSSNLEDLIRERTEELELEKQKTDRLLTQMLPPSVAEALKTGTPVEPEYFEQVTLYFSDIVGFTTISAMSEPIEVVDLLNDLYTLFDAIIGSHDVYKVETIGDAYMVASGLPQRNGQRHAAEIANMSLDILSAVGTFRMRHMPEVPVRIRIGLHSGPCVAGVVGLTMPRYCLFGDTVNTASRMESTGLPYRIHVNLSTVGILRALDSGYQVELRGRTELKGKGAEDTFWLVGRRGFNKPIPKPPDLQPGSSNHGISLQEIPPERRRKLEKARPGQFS

Row | RetGC1 activity left with 100 nM RD3, % of that without RD3 (1.5 uM GCAP1) [1] [%] | IC50 of inhibition of GCAP1-activated RetGC1 activity [2] [nM] | Substance
1 | 3.9 | – | RD3 3L→S5 deletion (from UniProt Q7Z3Z2 1-195) (natural protein)
2 | 17.9 | – | RD3 45RER47→45AAA47 (from UniProt Q7Z3Z2 1-195) (natural protein)
3 | 12.4 | – | RD3 50AVRK53→50KAIE53 (from UniProt Q7Z3Z2 1-195) (natural protein)
4 | 11.5 | – | RD3 77ERLQ80→77QLRE80 (from UniProt Q7Z3Z2 1-195) (natural protein)
5 | 11.8 | – | RD3 132EEE134→132QQQ134 (from UniProt Q7Z3Z2 1-195) (natural protein)
6 | 8.6 | – | RD3 137KLTRQ141→137QRKTL141 (from UniProt Q7Z3Z2 1-195) (natural protein)
7 | 9.6 | – | RD3 147RGSL150→147GRLS150 (from UniProt Q7Z3Z2 1-195) (natural protein)
8 | 7.5 | – | RD3 154KTRAR158→154ENSES158 (from UniProt Q7Z3Z2 1-195) (natural protein)
9 | 9.5 | – | RD3 164SDIRT168→164RSDTI168 (from UniProt Q7Z3Z2 1-195) (natural protein)
10 | 2.5 | – | RD3 171EDVERD176→171KKAKQR176 (from UniProt Q7Z3Z2 1-195) (natural protein)
11 | 8.5 | – | RD3 178PPP180→178AAA180 (from UniProt Q7Z3Z2 1-195) (natural protein)
12 | 12.7 | – | RD3 186SMP188→186PRS188 (from UniProt Q7Z3Z2 1-195) (natural protein)
13 | 6.4 | – | RD3 A22E (from UniProt Q7Z3Z2 1-195) (natural protein)
14 | 14.4 | – | RD3 A22Y (from UniProt Q7Z3Z2 1-195) (natural protein)
15 | 15 | – | RD3 A64R (from UniProt Q7Z3Z2 1-195) (natural protein)
16 | 8.5 | 3.6 | RD3 A105R (from UniProt Q7Z3Z2 1-195) (natural protein)
17 | 17.9 | 16.7 | RD3 A105Y (from UniProt Q7Z3Z2 1-195) (natural protein)
18 | 9.1 | – | RD3 A135R (from UniProt Q7Z3Z2 1-195) (natural protein)
19 | 7.1 | – | RD3 A151R/T152Q (from UniProt Q7Z3Z2 1-195) (natural protein)
20 | 6.9 | – | RD3 C55D (from UniProt Q7Z3Z2 1-195) (natural protein)
21 | 5.5 | – | RD3 D72R (from UniProt Q7Z3Z2 1-195) (natural protein)
22 | 7.2 | – | RD3 D83R (from UniProt Q7Z3Z2 1-195) (natural protein)
23 | 8.2 | – | RD3 E23R (from UniProt Q7Z3Z2 1-195) (natural protein)
24 | 6.6 | – | RD3 E27R (from UniProt Q7Z3Z2 1-195) (natural protein)

Row | RetGC1 activity left with 100 nM RD3, % of that without RD3 (1.5 uM GCAP1) [1] [%] | IC50 of inhibition of GCAP1-activated RetGC1 activity [2] [nM] | Substance
25 | 6.6 | – | RD3 E39R (from UniProt Q7Z3Z2 1-195) (natural protein)
26 | 10.3 | – | RD3 E41A (from UniProt Q7Z3Z2 1-195) (natural protein)
27 | 12.6 | – | RD3 E41R (from UniProt Q7Z3Z2 1-195) (natural protein)
28 | 7.1 | – | RD3 E108K (from UniProt Q7Z3Z2 1-195) (natural protein)
29 | 9.6 | – | RD3 E110R (from UniProt Q7Z3Z2 1-195) (natural protein)
30 | 10.1 | – | RD3 E127R/R128E (from UniProt Q7Z3Z2 1-195) (natural protein)
31 | 7.3 | – | RD3 F153R (from UniProt Q7Z3Z2 1-195) (natural protein)
32 | 5.5 | – | RD3 G35Y (from UniProt Q7Z3Z2 1-195) (natural protein)
33 | 7.5 | – | RD3 I76R (from UniProt Q7Z3Z2 1-195) (natural protein)
34 | 55 | – | RD3 I97Y (from UniProt Q7Z3Z2 1-195) (natural protein)
35 | 5.9 | – | RD3 L98R (from UniProt Q7Z3Z2 1-195) (natural protein)
36 | 9.9 | – | RD3 L98Y (from UniProt Q7Z3Z2 1-195) (natural protein)
37 | 12.1 | – | RD3 L103R (from UniProt Q7Z3Z2 1-195) (natural protein)
38 | 7.3 | – | RD3 L144W (from UniProt Q7Z3Z2 1-195) (natural protein)
39 | 10.9 | – | RD3 M24D (from UniProt Q7Z3Z2 1-195) (natural protein)
40 | 6.6 | – | RD3 M31R (from UniProt Q7Z3Z2 1-195) (natural protein)
41 | 11 | – | RD3 P67D (from UniProt Q7Z3Z2 1-195) (natural protein)
42 | 11.3 | – | RD3 P67G (from UniProt Q7Z3Z2 1-195) (natural protein)
43 | 10.7 | – | RD3 P75R (from UniProt Q7Z3Z2 1-195) (natural protein)
44 | 24.2 | – | RD3 P90A (from UniProt Q7Z3Z2 1-195) (natural protein)
45 | 5.3 | – | RD3 Q43R (from UniProt Q7Z3Z2 1-195) (natural protein)
46 | 9.2 | – | RD3 Q112E/E113Q (from UniProt Q7Z3Z2 1-195) (natural protein)
47 | 10.8 | – | RD3 Q116Y (from UniProt Q7Z3Z2 1-195) (natural protein)
48 | 11.9 | – | RD3 Q123E/E124Q (from UniProt Q7Z3Z2 1-195) (natural protein)

Row | RetGC1 activity left with 100 nM RD3, % of that without RD3 (1.5 uM GCAP1) [1] [%] | IC50 of inhibition of GCAP1-activated RetGC1 activity [2] [nM] | Substance
49 | 18.2 | – | RD3 R38S (from UniProt Q7Z3Z2 1-195) (natural protein)
50 | 14.5 | – | RD3 R42E (from UniProt Q7Z3Z2 1-195) (natural protein)
51 | 12.4 | – | RD3 R68D (from UniProt Q7Z3Z2 1-195) (natural protein)
52 | – | 4460 | RD3 R101A/Q102L (from UniProt Q7Z3Z2 1-195) (natural protein)
53 | 12 | – | RD3 R119S (from UniProt Q7Z3Z2 1-195) (natural protein)
54 | 9.2 | – | RD3 R145D (from UniProt Q7Z3Z2 1-195) (natural protein)
55 | 11.5 | – | RD3 S20Y/P21R (from UniProt Q7Z3Z2 1-195) (natural protein)
56 | 10.8 | – | RD3 S65Y (from UniProt Q7Z3Z2 1-195) (natural protein)
57 | 9 | – | RD3 S69Y (from UniProt Q7Z3Z2 1-195) (natural protein)
58 | 13.3 | – | RD3 S91Y (from UniProt Q7Z3Z2 1-195) (natural protein)
59 | 8.2 | – | RD3 S120Y (from UniProt Q7Z3Z2 1-195) (natural protein)
60 | 9.1 | – | RD3 S143Y (from UniProt Q7Z3Z2 1-195) (natural protein)
61 | 14.9 | – | RD3 T18D/R19A (from UniProt Q7Z3Z2 1-195) (natural protein)
62 | 15.3 | – | RD3 T28R (from UniProt Q7Z3Z2 1-195) (natural protein)
63 | 8.1 | – | RD3 T34Q (from UniProt Q7Z3Z2 1-195) (natural protein)
64 | 9.2 | – | RD3 T56H (from UniProt Q7Z3Z2 1-195) (natural protein)
65 | 7.3 | – | RD3 T66K (from UniProt Q7Z3Z2 1-195) (natural protein)
66 | 8.2 | – | RD3 T70R (from UniProt Q7Z3Z2 1-195) (natural protein)
67 | 16.7 | – | RD3 V58Q (from UniProt Q7Z3Z2 1-195) (natural protein)
68 | 7.1 | – | RD3 V86R/K87A (from UniProt Q7Z3Z2 1-195) (natural protein)
69 | 11.1 | – | RD3 W6L (from UniProt Q7Z3Z2 1-195) (natural protein)
70 | 7.9 | – | RD3 W142A (from UniProt Q7Z3Z2 1-195) (natural protein)
71 | 16.4 | – | RD3 Y71E (from UniProt Q7Z3Z2 1-195) (natural protein)
72 | 15.4 | – | RD3 Y71G (from UniProt Q7Z3Z2 1-195) (natural protein)
